Series [1] concerns the target Protobothrops flavoviridis leucine-rich α2-glycoprotein (LRG) (Protobothrops flavoviridis). The series is described as follows: SDS-PAGE under reducing and non-reducing conditions.
Series [2] addresses Gloydius brevicauda basic phospholipase A2 (Gloydius brevicauda). The series is described as follows: inhibition of enzyme activity; PLA2 activity measured fluorometrically with 10-Pyrene-PC as substrate at various concentrations of LRG; apparent inhibition constant (Ki app) by non-linear least-squares analysis of relative PLA2 activity.
In series [3] the target is Naja kaouthia leucine-rich α2-glycoprotein (LRG) (Naja kaouthia). The series is described as follows: SDS-PAGE under reducing and non-reducing conditions.
The target in series [4] is Laticauda semifasciata leucine-rich α2-glycoprotein (LRG) (Laticauda semifasciata). Described as above.
For series [5], the target named is Protobothrops flavoviridis leucine-rich α2-glycoprotein (LRG) (Protobothrops flavoviridis). The series is described as follows: SPR; BIAcore X; P. flavoviridis LRG amine-coupled to a CM5 chip; Cyt c or PLA2 as analyte; 25 °C; 50 mM HEPES, 0.05% Tween 20, pH 7.5, NaCl to ionic strength 0.2; 10 μL/min; 1:1 Langmuir model with drifting baseline, global fit; apparent Kd.

Series [6] concerns the molecule itself. Briefly: SDS-PAGE under reducing and non-reducing conditions.
Series [7] concerns the target T1, Protobothrops flavoviridis basic phospholipase A2 PL-X (Protobothrops flavoviridis, UniProt P06860 1-122).
T1 construct: Group II basic phospholipase A2 PL-X from the venom of Protobothrops flavoviridis; also called P. flavoviridis PL-X
T1 sequence: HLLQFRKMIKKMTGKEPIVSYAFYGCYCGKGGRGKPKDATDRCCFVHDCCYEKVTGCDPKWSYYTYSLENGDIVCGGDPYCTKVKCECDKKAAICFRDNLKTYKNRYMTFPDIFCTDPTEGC
Briefly: inhibition of enzyme activity; PLA2 activity measured fluorometrically with 10-Pyrene-PC as substrate at various concentrations of LRG; apparent inhibition constant (Ki app) by non-linear least-squares analysis of relative PLA2 activity. As to conditions: both partners purified.

One may read the stoichiometry N as the number of molecules, sites or subunits per partner or assembly.

Gloydius brevicauda basic phospholipase A2 (Gloydius brevicauda), sequence (O42187 17-138 limits assumed): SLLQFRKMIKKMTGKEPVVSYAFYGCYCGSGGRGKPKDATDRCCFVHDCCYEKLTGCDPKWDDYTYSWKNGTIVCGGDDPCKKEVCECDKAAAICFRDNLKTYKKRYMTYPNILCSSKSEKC

On to “Protobothrops flavoviridis leucine-rich α2-glycoprotein (LRG) (natural protein)”, for which the stoichiometry N in series [1] is 2.
Regarding “Naja kaouthia leucine-rich α2-glycoprotein (LRG) (natural protein)”, in series [2], the Ki was 350 nM. The stoichiometry N in series [3] worked out at 2.
As for “Laticauda semifasciata leucine-rich α2-glycoprotein (LRG) (natural protein)”, the Ki in series [2] came to 1030 nM. This molecule yielded a stoichiometry N in series [4] of 2.
Take “Elaphe climacophora leucine-rich α2-glycoprotein (PLIβ) (from UniProt C0STK7 24-332) (natural protein)”: the Ki in series [2] came to 11.1 nM.
With “Laticauda semifasciata cytochrome c (natural protein)”, in series [5], the Kd is 0.0149 nM.

B1: Elaphe quadrivirgata PLIβ (natural protein)
chain: VLYCPPDPAPENITEFVCNSPSLHEFPTGFPVRTKLISVEFTQVSSLGVEALQGLPNLQELHLSNNRLKTLLSGLFRNLPELHTLDLSTNLLEDLPPEIFTSTTSLTLLSISENRLAKLRLSWFETLKELRILSLDNNQLKEVPISCFDKLEKLTFLDLSSNRLHRLSPDMFSGLDNLERLSLENNPIRCIAPKSFHGRPKLSIISLKNCSLTNIITGVFQPLNHLVLLDLSDNELTMLDPPVAIPSANLSLDLTGNPWACNCRMDNLLTWVKEHKIDLYSKEEIVCAFPKSFKGEEATSLHRSQICPC
As to B1, the “stoichiometry N” value in series [6] worked out at 2.

B2: Gloydius brevicauda leucine-rich α2-glycoprotein (PLIβ) (natural protein, UniProt O93233 24-331, looked up)
chain: VLYCPPTPAPENVTEFVCNSPSLHEFPTGFPARAKMISVEFTQVSSLGVEALQGLPNLQELHLSNNRLKTLPSGLFRNLPQLHTLDLSTNHLEDLPPEIFTNASSLILLPLSENQLAELHPSWFQTLGELRILGLDHNQVKEIPISCFDKLKKLTSLDLSFNLLRRLAPEMFSGLDNLEKLILESNPIQCIVGRTFHWHPKLTVLSLKNSSLTNIMGFFQPLEQLELLDLSDNELTTMEPPVYKTSANLSLDLSGNPWACDCRLDNLLTWVNEHNIHLYSKEEIVCASPKHFKGECATSLHKSQICPC
notes: PLIβ (snake LRG) of Gloydius brevicauda (Agkistrodon blomhoffii siniticus), from serum; also called G. brevicauda LRG; G. brevicauda PLIβ
Regarding B2, the Ki in series [7] is 26.1 nM. Further, the “stoichiometry N” value in series [6] came out at 2.

Source of the values: paper PMC10975490 (Toxins, 2024).
